# Assay results as given in publication PMC9482650, “Quantitative fragmentomics allow affinity mapping of interactomes” (Nature Communications, 2022).
# T1: PCLO, Q9Y6V0
# T1 sequence (Q9Y6V0 4491-4600, limits assumed, looked up): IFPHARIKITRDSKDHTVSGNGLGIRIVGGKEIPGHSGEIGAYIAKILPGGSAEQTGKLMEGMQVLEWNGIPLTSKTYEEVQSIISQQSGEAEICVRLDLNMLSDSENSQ
# T2: MPP7, Q5T2T1
# T2 sequence (Q5T2T1 134-230, limits assumed, looked up): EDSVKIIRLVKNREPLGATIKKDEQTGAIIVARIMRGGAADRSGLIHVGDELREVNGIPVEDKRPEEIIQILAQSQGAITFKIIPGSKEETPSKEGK
# T3: PDZRN3_1, Q9UPQ7
# T3 sequence (Q9UPQ7 244-349, limits assumed, looked up): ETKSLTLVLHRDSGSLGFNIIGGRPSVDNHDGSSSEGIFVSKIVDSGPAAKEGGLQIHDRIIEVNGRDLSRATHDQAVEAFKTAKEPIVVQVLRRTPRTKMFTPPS
# T4: LIN7A, O14910
# T4 sequence (O14910 103-200, limits assumed, looked up): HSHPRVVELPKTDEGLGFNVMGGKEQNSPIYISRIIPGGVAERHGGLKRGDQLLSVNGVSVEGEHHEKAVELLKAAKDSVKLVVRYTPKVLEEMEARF
# T5: PTPN13_1, Q12923
# T5 sequence (Q12923 1088-1188, limits assumed, looked up): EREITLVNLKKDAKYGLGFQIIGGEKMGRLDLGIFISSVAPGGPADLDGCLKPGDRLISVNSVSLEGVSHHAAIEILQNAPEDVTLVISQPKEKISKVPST
# T6: GRIP1_5, Q9Y3R0
# T6 sequence (Q9Y3R0 568-668, limits assumed, looked up): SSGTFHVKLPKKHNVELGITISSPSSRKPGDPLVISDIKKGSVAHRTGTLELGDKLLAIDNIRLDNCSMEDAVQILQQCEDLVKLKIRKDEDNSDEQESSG
# T7: GRIP1_7, Q9Y3R0
# T7 sequence (Q9Y3R0 999-1096, limits assumed, looked up): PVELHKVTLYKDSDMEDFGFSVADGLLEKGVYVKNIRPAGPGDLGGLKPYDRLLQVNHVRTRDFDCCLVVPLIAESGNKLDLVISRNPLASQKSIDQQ
# T8: MPP6, Q9NZW5
# T8 sequence (Q9NZW5 125-219, limits assumed, looked up): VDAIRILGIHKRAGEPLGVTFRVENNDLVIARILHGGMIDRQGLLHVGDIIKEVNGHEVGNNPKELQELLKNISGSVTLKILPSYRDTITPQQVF
# T9: SYNJ2BP, P57105
# T9 sequence (P57105 8-110, limits assumed, looked up): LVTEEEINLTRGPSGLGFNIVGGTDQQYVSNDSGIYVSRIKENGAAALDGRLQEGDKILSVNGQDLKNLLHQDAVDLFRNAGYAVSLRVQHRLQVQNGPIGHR
# T10: ARHGEF11, O15085
# T10 sequence (O15085 42-136, limits assumed, looked up): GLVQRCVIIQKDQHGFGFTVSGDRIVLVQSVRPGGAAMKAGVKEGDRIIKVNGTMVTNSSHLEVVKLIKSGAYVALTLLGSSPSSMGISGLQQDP
# Target: MAGI2_5, Q86UL8
# Experiment: holdup assay
# Set-up: key: below the threshold = too weak to quantify, mostly under pKd 3.1 to 4
# Settings: plain residues with an end cap or a label only (N-terminal biotin on a linker: ado-ado)
# MAGI2_5, Q86UL8, sequence (Q86UL8 915-1017): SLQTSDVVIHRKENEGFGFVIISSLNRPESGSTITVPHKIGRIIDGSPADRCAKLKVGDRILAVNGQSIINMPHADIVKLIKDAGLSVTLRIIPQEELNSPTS
row,pKd,Binder
1,below the threshold,"FVFESRKEIL [TBPL1, P62380]"

# Target: T1, PCLO, Q9Y6V0
# Experiment: holdup assay
# Set-up: key: below the threshold = too weak to quantify, mostly under pKd 3.1 to 4
# Settings: plain residues with an end cap or a label only (N-terminal biotin on a linker: ado-ado)
row,pKd,Binder
1,below the threshold,"FVFESRKEIL [TBPL1, P62380]"

# Target: GRID2IP_1, A4D2P6
# Experiment: holdup assay
# Set-up: key: below the threshold = too weak to quantify, mostly under pKd 3.1 to 4
# Settings: plain residues with an end cap or a label only (N-terminal biotin on a linker: ado-ado)
# GRID2IP_1, A4D2P6, sequence (A4D2P6 1-87): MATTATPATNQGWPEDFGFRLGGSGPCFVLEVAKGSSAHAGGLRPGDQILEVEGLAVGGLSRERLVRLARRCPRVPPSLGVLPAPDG
row,pKd,Binder
1,below the threshold,"FVFESRKEIL [TBPL1, P62380]"

# Target: MAGI1_1, Q96QZ7
# Experiment: holdup assay
# Set-up: key: below the threshold = too weak to quantify, mostly under pKd 3.1 to 4
# Settings: plain residues with an end cap or a label only (N-terminal biotin on a linker: ado-ado)
# MAGI1_1, Q96QZ7, sequence (Q96QZ7 1-106): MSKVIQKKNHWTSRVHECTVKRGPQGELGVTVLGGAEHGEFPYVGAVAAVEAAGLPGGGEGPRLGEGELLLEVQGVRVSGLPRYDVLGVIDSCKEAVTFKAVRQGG
row,pKd,Binder
1,below the threshold,"FVFESRKEIL [TBPL1, P62380]"

# Target: GIPC2, Q8TF65
# Experiment: holdup assay
# Set-up: key: below the threshold = too weak to quantify, mostly under pKd 3.1 to 4
# Settings: plain residues with an end cap or a label only (N-terminal biotin on a linker: ado-ado)
# GIPC2, Q8TF65, sequence (Q8TF65 112-203): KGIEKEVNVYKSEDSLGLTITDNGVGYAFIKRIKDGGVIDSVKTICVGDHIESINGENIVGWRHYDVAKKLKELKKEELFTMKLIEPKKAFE
row,pKd,Binder
1,below the threshold,"FVFESRKEIL [TBPL1, P62380]"

# Target: Inadl_4, Q8NI35
# Experiment: holdup assay
# Set-up: key: below the threshold = too weak to quantify, mostly under pKd 3.1 to 4
# Settings: plain residues with an end cap or a label only (N-terminal biotin on a linker: ado-ado)
# Inadl_4, Q8NI35, sequence (Q8NI35 547-651): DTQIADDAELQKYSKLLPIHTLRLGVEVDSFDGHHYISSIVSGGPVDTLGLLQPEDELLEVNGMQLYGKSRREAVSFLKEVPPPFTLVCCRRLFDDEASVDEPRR
row,pKd,Binder
1,below the threshold,"FVFESRKEIL [TBPL1, P62380]"

# Target: MAGI1_2, Q96QZ7
# Experiment: holdup assay
# Set-up: key: below the threshold = too weak to quantify, mostly under pKd 3.1 to 4
# Settings: plain residues with an end cap or a label only (N-terminal biotin on a linker: ado-ado)
# MAGI1_2, Q96QZ7, sequence (Q96QZ7 456-580): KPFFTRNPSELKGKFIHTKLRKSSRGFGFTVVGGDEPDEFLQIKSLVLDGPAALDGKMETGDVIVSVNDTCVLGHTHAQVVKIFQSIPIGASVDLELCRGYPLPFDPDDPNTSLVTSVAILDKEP
row,pKd,Binder
1,below the threshold,"FVFESRKEIL [TBPL1, P62380]"

# Target: T2, MPP7, Q5T2T1
# Experiment: holdup assay
# Set-up: key: below the threshold = too weak to quantify, mostly under pKd 3.1 to 4
# Settings: plain residues with an end cap or a label only (N-terminal biotin on a linker: ado-ado)
row,pKd,Binder
1,below the threshold,"FVFESRKEIL [TBPL1, P62380]"

# Target: T3, PDZRN3_1, Q9UPQ7
# Experiment: holdup assay
# Set-up: key: below the threshold = too weak to quantify, mostly under pKd 3.1 to 4
# Settings: plain residues with an end cap or a label only (N-terminal biotin on a linker: ado-ado)
row,pKd,Binder
1,below the threshold,"FVFESRKEIL [TBPL1, P62380]"

# Target: T4, LIN7A, O14910
# Experiment: holdup assay
# Set-up: key: below the threshold = too weak to quantify, mostly under pKd 3.1 to 4
# Settings: plain residues with an end cap or a label only (N-terminal biotin on a linker: ado-ado)
row,pKd,Binder
1,below the threshold,"FVFESRKEIL [TBPL1, P62380]"

# Target: T5, PTPN13_1, Q12923
# Experiment: holdup assay
# Set-up: key: below the threshold = too weak to quantify, mostly under pKd 3.1 to 4
# Settings: plain residues with an end cap or a label only (N-terminal biotin on a linker: ado-ado)
row,pKd,Binder
1,below the threshold,"FVFESRKEIL [TBPL1, P62380]"

# Target: GRASP, Q7Z6J2
# Experiment: holdup assay
# Set-up: key: below the threshold = too weak to quantify, mostly under pKd 3.1 to 4
# Settings: plain residues with an end cap or a label only (N-terminal biotin on a linker: ado-ado)
# GRASP, Q7Z6J2, sequence (Q7Z6J2 96-193): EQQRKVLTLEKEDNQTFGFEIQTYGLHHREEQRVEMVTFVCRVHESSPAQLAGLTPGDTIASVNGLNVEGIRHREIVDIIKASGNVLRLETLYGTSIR
row,pKd,Binder
1,4.72,"FVFESRKEIL [TBPL1, P62380]"

# Target: SCRIB_2, Q14160
# Experiment: holdup assay
# Set-up: key: below the threshold = too weak to quantify, mostly under pKd 3.1 to 4
# Settings: plain residues with an end cap or a label only (N-terminal biotin on a linker: ado-ado)
# SCRIB_2, Q14160, sequence (Q14160 857-960): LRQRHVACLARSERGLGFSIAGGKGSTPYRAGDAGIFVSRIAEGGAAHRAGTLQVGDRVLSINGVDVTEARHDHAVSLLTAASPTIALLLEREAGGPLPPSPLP
row,pKd,Binder
1,below the threshold,"FVFESRKEIL [TBPL1, P62380]"

# Target: GRIP2_3, Q9C0E4
# Experiment: holdup assay
# Set-up: key: below the threshold = too weak to quantify, mostly under pKd 3.1 to 4
# Settings: plain residues with an end cap or a label only (N-terminal biotin on a linker: ado-ado)
# GRIP2_3, Q9C0E4, sequence (Q9C0E4 238-339): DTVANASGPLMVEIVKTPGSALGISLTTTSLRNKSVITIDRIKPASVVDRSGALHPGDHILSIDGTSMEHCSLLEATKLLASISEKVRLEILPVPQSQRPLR
row,pKd,Binder
1,below the threshold,"FVFESRKEIL [TBPL1, P62380]"

# Target: MAST2, Q6P0Q8
# Experiment: holdup assay
# Set-up: key: below the threshold = too weak to quantify, mostly under pKd 3.1 to 4
# Settings: plain residues with an end cap or a label only (N-terminal biotin on a linker: ado-ado)
# MAST2, Q6P0Q8, sequence (Q6P0Q8 1099-1202): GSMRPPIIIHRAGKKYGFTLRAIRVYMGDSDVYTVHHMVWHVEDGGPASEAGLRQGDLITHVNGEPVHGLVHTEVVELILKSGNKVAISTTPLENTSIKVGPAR
row,pKd,Binder
1,4.95,"FVFESRKEIL [TBPL1, P62380]"

# Target: NHERF4_2, Q86UT5
# Experiment: holdup assay
# Set-up: key: below the threshold = too weak to quantify, mostly under pKd 3.1 to 4
# Settings: plain residues with an end cap or a label only (N-terminal biotin on a linker: ado-ado)
# NHERF4_2, Q86UT5, sequence (Q86UT5 220-308): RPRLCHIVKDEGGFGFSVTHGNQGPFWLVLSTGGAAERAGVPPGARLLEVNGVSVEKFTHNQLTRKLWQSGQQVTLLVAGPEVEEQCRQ
row,pKd,Binder
1,below the threshold,"FVFESRKEIL [TBPL1, P62380]"

# Target: T6, GRIP1_5, Q9Y3R0
# Experiment: holdup assay
# Set-up: key: below the threshold = too weak to quantify, mostly under pKd 3.1 to 4
# Settings: plain residues with an end cap or a label only (N-terminal biotin on a linker: ado-ado)
row,pKd,Binder
1,below the threshold,"FVFESRKEIL [TBPL1, P62380]"

# Target: AHNAK1, Q09666
# Experiment: holdup assay
# Set-up: key: below the threshold = too weak to quantify, mostly under pKd 3.1 to 4
# Settings: plain residues with an end cap or a label only (N-terminal biotin on a linker: ado-ado)
# AHNAK1, Q09666, sequence (Q09666 4-100): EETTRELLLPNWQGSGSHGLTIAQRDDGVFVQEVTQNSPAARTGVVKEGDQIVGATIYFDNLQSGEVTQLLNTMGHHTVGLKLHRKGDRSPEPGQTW
row,pKd,Binder
1,below the threshold,"FVFESRKEIL [TBPL1, P62380]"

# Target: HTRA1, Q92743
# Experiment: holdup assay
# Set-up: key: below the threshold = too weak to quantify, mostly under pKd 3.1 to 4
# Settings: plain residues with an end cap or a label only (N-terminal biotin on a linker: ado-ado)
# HTRA1, Q92743, sequence (Q92743 360-477): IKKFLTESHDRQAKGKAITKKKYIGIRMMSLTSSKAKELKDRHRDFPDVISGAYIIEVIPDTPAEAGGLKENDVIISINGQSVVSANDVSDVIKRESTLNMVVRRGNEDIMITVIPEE
row,pKd,Binder
1,3.89,"FVFESRKEIL [TBPL1, P62380]"

# Target: T7, GRIP1_7, Q9Y3R0
# Experiment: holdup assay
# Set-up: key: below the threshold = too weak to quantify, mostly under pKd 3.1 to 4
# Settings: plain residues with an end cap or a label only (N-terminal biotin on a linker: ado-ado)
row,pKd,Binder
1,below the threshold,"FVFESRKEIL [TBPL1, P62380]"

# Target: MAGI2_3, Q86UL8
# Experiment: holdup assay
# Set-up: key: below the threshold = too weak to quantify, mostly under pKd 3.1 to 4
# Settings: plain residues with an end cap or a label only (N-terminal biotin on a linker: ado-ado)
# MAGI2_3, Q86UL8, sequence (Q86UL8 600-682): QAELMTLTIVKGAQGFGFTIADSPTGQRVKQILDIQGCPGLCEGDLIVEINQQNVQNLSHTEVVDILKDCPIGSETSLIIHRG
row,pKd,Binder
1,below the threshold,"FVFESRKEIL [TBPL1, P62380]"

# Target: T8, MPP6, Q9NZW5
# Experiment: holdup assay
# Set-up: key: below the threshold = too weak to quantify, mostly under pKd 3.1 to 4
# Settings: plain residues with an end cap or a label only (N-terminal biotin on a linker: ado-ado)
row,pKd,Binder
1,3.53,"FVFESRKEIL [TBPL1, P62380]"

# Target: T9, SYNJ2BP, P57105
# Experiment: holdup assay
# Set-up: key: below the threshold = too weak to quantify, mostly under pKd 3.1 to 4
# Settings: plain residues with an end cap or a label only (N-terminal biotin on a linker: ado-ado)
row,pKd,Binder
1,below the threshold,"FVFESRKEIL [TBPL1, P62380]"

# Target: T10, ARHGEF11, O15085
# Experiment: holdup assay
# Set-up: key: below the threshold = too weak to quantify, mostly under pKd 3.1 to 4
# Settings: plain residues with an end cap or a label only (N-terminal biotin on a linker: ado-ado)
row,pKd,Binder
1,below the threshold,"FVFESRKEIL [TBPL1, P62380]"

# Target: DLG4_2, P78352
# Experiment: holdup assay
# Set-up: key: below the threshold = too weak to quantify, mostly under pKd 3.1 to 4
# Settings: plain residues with an end cap or a label only (N-terminal biotin on a linker: ado-ado)
# DLG4_2, P78352, sequence (P78352 155-259): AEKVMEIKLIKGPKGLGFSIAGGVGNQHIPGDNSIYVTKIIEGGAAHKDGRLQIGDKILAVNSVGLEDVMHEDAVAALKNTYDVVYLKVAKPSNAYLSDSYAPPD
row,pKd,Binder
1,below the threshold,"FVFESRKEIL [TBPL1, P62380]"

# Target: FRMPD2_1, Q68DX3
# Experiment: holdup assay
# Set-up: key: below the threshold = too weak to quantify, mostly under pKd 3.1 to 4
# Settings: plain residues with an end cap or a label only (N-terminal biotin on a linker: ado-ado)
# FRMPD2_1, Q68DX3, sequence (Q68DX3 770-861): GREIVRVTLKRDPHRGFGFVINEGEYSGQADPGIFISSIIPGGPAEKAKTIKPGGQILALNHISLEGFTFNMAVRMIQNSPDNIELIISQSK
row,pKd,Binder
1,below the threshold,"FVFESRKEIL [TBPL1, P62380]"

# Target: GRIP2_6, Q9C0E4
# Experiment: holdup assay
# Set-up: key: below the threshold = too weak to quantify, mostly under pKd 3.1 to 4
# Settings: plain residues with an end cap or a label only (N-terminal biotin on a linker: ado-ado)
# GRIP2_6, Q9C0E4, sequence (Q9C0E4 648-740): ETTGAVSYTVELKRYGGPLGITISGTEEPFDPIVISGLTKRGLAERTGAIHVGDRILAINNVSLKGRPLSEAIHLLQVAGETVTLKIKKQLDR
row,pKd,Binder
1,below the threshold,"FVFESRKEIL [TBPL1, P62380]"
